Results taken from patent US20240026343A1, “METHOD FOR SCREENING DIMERIZED CYCLIC PEPTIDE” (AJINOMOTO CO., INC., priority 2021, published 2024).
Numbering of substitutions follows the chain as printed. Values belong to the molecule of their own block, whether it stands above or below them. Positions of bridges follow the written chain, without caps; N, C: chain ends. No end group written: not given here.

How the values were obtained:
[1] = target: Met (Homo sapiens, UniProt P08581); settings: reported; cited from earlier work
Sequence of Met (P08581 25-1390): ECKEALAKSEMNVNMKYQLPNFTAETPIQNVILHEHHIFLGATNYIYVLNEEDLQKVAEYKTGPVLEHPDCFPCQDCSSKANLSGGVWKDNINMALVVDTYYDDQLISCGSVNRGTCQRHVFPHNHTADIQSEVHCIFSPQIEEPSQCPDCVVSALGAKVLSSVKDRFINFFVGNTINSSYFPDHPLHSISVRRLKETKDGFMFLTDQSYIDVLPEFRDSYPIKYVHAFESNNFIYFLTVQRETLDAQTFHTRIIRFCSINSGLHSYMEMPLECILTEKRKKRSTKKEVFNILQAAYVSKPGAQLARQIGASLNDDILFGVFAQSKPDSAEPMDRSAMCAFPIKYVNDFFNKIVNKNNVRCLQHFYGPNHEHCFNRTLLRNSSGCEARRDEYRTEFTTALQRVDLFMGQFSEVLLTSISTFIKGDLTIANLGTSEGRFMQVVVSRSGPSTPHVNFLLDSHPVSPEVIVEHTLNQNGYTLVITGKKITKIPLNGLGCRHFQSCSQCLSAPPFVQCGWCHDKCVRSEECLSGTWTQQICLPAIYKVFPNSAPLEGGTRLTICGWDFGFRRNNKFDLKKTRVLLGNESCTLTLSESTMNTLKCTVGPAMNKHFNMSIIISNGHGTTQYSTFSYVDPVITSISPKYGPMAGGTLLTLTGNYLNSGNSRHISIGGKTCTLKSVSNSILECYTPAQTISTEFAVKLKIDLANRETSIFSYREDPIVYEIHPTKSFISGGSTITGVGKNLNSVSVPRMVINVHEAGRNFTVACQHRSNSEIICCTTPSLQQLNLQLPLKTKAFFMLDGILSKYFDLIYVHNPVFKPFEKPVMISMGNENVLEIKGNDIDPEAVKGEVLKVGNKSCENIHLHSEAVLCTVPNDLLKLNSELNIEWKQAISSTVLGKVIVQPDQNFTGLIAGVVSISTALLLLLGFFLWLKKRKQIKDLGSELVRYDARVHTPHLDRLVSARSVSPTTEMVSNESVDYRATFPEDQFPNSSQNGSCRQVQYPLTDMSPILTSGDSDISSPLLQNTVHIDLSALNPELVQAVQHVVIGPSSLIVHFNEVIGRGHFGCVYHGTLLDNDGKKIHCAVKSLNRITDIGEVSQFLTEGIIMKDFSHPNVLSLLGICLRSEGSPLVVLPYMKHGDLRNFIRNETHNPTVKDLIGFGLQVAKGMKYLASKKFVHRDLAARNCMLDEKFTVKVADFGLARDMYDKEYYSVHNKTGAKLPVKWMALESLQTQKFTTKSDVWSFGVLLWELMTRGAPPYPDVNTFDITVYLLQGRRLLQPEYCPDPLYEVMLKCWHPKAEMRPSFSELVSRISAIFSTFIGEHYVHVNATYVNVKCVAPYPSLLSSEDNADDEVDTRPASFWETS

[2] = tested on: HGF-Erk-SRE pathway; experiment: SRE luciferase reporter assay of aMD4dY-leucine zipper fusion dimers (Example 2); format: cell-based; settings: HEK293E cells with SRE reporter; cell-free expression reaction solution at 25- to 625-fold dilution; overnight stimulation; HGF 0 to 100 ng/mL as comparator; FIGS. 8-13
Method: (§1) The dimer of each aMD4dY-leucine zipper fusion was evaluated by luciferase assay. To 25 μL of Opti-MEM medium (Thermo Fisher Scientific), 0.6 μL of Attractene Transfection Reagent (QIAGEN) was added and incubated at room temperature for 5 minutes. To the above mixed solution, a mixed solution of 25 μL of Opti-MEM and 1 μL of SRE reporter vector (QIAGEN) was added and incubated at room temperature for 20 minutes. This mixed solution was added to a 96-well plate, HEK293E cells were seeded thereon at 40,000 cells/well, and incubated overnight at 37° C. in a 5% CO2 incubator. After transfection, all the culture supernatant was removed, and 100 μL of Opti-MEM medium (evaluation basal medium), containing 0.5% FBS (Thermo Fisher Scientific), 1% non-essential amino acid solution (Thermo Fisher Scientific), and penicillin-streptomycin (Nacalai Tesque), was added thereto, which was cultured at 37° C. for 4 hours to starve the cells.
(§2) To the evaluation basal medium, 0 to 100 ng/mL HGF was added, or the cell-free expression reaction solution was added at a 25- to 625-fold dilution with respect to the medium, and 100 μL of the evaluation basal medium was added to the cells. The cells were stimulated by culturing overnight at 37° C. in a 5% CO2 incubator.
(§3) Dual-Luciferase Reporter Assay System (Promega) was used for signal intensity detection. The medium supernatant in an amount of 100 μL was removed, 50 μL of Glo reagent was added, and cells were lysed at room temperature for 10 minutes. Activation of the HGF-Erk-SRE pathway was quantified by detecting Firefly luciferase luminescence from cell lysates with a plate reader. Subsequently, 50 μL of Glo & Stop reagent solution was added, and after 10 minutes, luminescence of Renilla luciferase, an internal standard, was detected to quantify the cell count. The signal activity of each sample was quantified as SRE activity=(luminescence intensity of Firefly luciferase)/(luminescence intensity of Renilla luciferase). A signal activity value relative to a sample without an addition of evaluation compound was obtained and defined as relative reporter activity.

[3] = target: EpoR (Homo sapiens, UniProt P19235); experiment: PathHunter eXpress EpoR-JAK2 Functional Assay of EMP-leucine zipper fusion dimer (Example 3); format: cell-based; settings: diluted cell-free expression reaction solution; 3 hours stimulation; No DNA negative control; FIG. 14
Sequence of EpoR (P19235 25-508): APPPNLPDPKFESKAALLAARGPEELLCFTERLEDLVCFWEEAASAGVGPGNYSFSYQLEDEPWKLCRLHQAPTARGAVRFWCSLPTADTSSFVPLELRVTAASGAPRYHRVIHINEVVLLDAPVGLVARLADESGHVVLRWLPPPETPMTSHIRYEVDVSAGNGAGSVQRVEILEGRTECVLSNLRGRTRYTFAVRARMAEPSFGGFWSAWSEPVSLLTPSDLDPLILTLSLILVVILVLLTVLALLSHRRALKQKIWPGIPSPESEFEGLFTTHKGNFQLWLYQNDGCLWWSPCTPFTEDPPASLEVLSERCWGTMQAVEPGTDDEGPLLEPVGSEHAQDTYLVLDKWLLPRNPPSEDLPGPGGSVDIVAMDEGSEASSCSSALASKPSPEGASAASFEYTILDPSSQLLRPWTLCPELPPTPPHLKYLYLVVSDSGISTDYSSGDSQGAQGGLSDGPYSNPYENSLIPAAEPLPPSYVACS
Sequence of EpoR (O60674 whole entry partner, the tested form may be a part): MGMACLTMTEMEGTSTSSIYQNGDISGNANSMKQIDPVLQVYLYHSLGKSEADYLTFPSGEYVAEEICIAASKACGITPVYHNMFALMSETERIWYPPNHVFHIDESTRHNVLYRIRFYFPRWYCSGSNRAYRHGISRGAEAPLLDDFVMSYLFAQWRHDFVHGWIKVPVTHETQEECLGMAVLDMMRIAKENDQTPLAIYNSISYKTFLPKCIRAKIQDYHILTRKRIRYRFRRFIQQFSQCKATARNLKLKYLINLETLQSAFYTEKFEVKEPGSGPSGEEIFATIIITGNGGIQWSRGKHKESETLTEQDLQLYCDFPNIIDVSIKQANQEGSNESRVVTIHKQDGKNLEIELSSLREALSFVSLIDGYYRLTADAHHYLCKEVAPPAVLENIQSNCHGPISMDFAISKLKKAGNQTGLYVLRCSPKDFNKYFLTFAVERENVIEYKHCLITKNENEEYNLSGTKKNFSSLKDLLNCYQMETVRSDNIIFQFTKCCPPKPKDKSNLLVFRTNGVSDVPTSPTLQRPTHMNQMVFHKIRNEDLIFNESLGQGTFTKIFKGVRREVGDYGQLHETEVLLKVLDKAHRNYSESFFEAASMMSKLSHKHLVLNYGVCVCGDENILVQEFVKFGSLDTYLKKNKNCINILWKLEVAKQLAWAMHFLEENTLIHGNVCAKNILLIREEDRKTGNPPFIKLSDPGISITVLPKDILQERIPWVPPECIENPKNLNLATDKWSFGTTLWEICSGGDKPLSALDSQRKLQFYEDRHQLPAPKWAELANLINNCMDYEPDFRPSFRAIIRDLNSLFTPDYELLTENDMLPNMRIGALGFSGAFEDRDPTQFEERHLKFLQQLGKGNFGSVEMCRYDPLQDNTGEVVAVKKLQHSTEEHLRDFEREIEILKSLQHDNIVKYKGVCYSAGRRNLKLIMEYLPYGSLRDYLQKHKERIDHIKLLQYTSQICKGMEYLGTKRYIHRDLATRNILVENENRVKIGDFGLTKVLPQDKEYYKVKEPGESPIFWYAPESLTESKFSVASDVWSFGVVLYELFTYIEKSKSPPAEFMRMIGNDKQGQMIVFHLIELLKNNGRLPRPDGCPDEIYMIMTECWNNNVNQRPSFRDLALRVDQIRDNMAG
Method: The ability of the EMP-leucine zipper fusion dimer to activate EpoR was assessed using PathHunter® eXpress EpoR-JAK2 Functional Assay Kit (DiscoveRx).
Cells for EPO activity evaluation contained in the PathHunter® eXpress EpoR-JAK2 Functional Assay Kit were seeded in a 96-well plate and cultured for 24 hours at 37° C. under 5% CO2. A cell-free expression reaction solution containing the EMP-leucine zipper fusion were diluted and added to the cells. […] To the cells stimulated at room temperature for 3 hours, the prepared Substrate Reagent was added and incubated for 60 minutes. Chemiluminescence intensity was quantified with a Nivo plate reader (Perkin Elmer).

[4] = target: T1, Recombinant Human HGFR/c-MET Fc Chimera Protein (R&D systems, 8614-MT-100) (human, UniProt P08581 25-932); experiment: ribosome display selection on c-MET Fc chimera on magnetic beads, from a 1:50:50 DNA mix; DNA length analysis of the recovered cDNA
T1 construct: Bought reagent; also called c-Met immobilized on magnetic beads; Fc part of the bought chimera not given
T1 sequence (P08581 25-932, change not shown): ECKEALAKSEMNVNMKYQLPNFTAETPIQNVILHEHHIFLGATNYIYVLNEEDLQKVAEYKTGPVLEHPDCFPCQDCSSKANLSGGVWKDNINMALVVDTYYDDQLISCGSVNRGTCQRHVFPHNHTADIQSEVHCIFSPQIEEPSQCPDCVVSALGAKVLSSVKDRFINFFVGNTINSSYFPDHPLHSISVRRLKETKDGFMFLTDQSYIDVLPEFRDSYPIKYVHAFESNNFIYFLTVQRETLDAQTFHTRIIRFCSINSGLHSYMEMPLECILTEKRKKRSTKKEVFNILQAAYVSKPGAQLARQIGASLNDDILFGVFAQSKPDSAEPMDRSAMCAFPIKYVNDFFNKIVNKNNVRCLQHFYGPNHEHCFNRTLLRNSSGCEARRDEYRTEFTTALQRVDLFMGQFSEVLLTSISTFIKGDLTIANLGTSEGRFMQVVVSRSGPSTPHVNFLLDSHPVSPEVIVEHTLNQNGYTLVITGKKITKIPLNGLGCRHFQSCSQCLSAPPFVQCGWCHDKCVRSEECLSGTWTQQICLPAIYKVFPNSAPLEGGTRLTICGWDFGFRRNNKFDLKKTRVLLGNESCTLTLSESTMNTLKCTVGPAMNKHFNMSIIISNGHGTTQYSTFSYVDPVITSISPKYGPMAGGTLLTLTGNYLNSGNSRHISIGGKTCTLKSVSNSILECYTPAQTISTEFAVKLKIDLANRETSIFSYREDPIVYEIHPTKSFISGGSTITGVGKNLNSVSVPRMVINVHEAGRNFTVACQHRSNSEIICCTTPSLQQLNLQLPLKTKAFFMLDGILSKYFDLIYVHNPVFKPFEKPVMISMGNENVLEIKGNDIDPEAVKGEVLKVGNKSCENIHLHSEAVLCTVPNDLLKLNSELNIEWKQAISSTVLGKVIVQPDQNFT

[5] = tested on: HGF-Erk-SRE pathway; experiment: SRE luciferase reporter assay of cell-free translation products from ribosome display DNAs (Example 4); format: cell-based; settings: HEK293E cells with SRE reporter; cell-free translation product at 25- to 625-fold dilution; HGF comparator; FIG. 16
Method: For cell-free translation, to 20 ng of each DNA, 2.5 μL of Solution I, 0.25 μL of Solution II, 0.5 μL of Solution III, and 1.75 μL of water were added, and the mixture was incubated at 37° C. for 6 hours to carry out the translation reaction.
as §1, with “Reporter assays were carried out as follows.” for “The dimer of each aMD4dY-leucine zipper fusion was evaluated by luciferase assay.”
as §2, with “or the above cell-free expression” for “or the cell-free expression”
as §3, with “The medium supernatant in an amount of 100 μL was removed, 50 μL of Glo reagent was added, and cells were lysed at room temperature for 10 minutes.” left out, “A signal activity value relative to a sample without an addition of evaluation compound was obtained and defined as relative reporter activity.” left out

[6] = target: T2, Recombinant Human Erythropoietin R Fc Chimera Protein, CF (R&D systems, 963-ER-50) (human, UniProt P19235 25-250); experiment: ribosome display selection on Erythropoietin R Fc chimera on magnetic beads, from a 1:50:50 DNA mix; DNA length analysis of the recovered cDNA
T2 construct: Bought reagent; also called EPO receptor immobilized on magnetic beads; Fc part of the bought chimera not given
T2 sequence (looked up): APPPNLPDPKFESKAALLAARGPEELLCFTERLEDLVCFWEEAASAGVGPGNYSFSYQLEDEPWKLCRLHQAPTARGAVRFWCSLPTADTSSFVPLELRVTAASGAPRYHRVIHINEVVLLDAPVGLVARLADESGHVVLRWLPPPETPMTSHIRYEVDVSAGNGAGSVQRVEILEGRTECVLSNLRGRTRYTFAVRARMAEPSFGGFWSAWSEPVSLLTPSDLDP

Molecule: CRQFNRRTHEVWNLDC (disulfide 1-16) [aMD4dY]
HGF-like activity (Met agonist) when dimerized [1]: exhibits an HGF-like activity

relative reporter activity (SRE activity) [2]: found to have signal activation ability
B1: aMD4dY-PA8-cys-CEBPα: aMD4dY-CEBPα leucine zipper fusion, SEQ ID NO: 49 (protein)
chain: MAETCRQFNRRTHEVWNLDCGAAPAAPAPAAGCGGRNVETQQKVLELTSDNDRLRKRVEQLSRELDTLRGIFRQ
modifications: aMD4dY-PA8-cys-CEBP; DISULFID 5..20 Disulfide bridge between Cys-5 and Cys-20

relative reporter activity (SRE activity) [2]: found to have signal activation ability
B2: Jun-cys-PA8-aMD4dY: aMD4dY-leucine zipper fusion, SEQ ID NO: 51 (protein)
chain: MGRIARLEEKVKTLKAQNSELASTANMLREQVAQLKQKVMNGGCGGAAPAAPAPACRQFNRRTHEVWNLDC
modifications: Jun-cys-PA8-aMD4dY; DISULFID 56..71 Disulfide bridge between Cys-56 and Cys-71

relative reporter activity (SRE activity) [2]: did not show activity
B3: aMD4dY-PA8-Jun: aMD4dY-leucine zipper fusion without cysteine residue, SEQ ID NO: 46 (protein)
chain: MAETCRQFNRRTHEVWNLDCGAAPAAPAPAAGGGRIARLEEKVKTLKAQNSELASTANMLREQVAQLKQKVMN
modifications: aMD4dY-PA8-Jun; DISULFID 5..20 Disulfide bridge between Cys-5 and Cys-20

relative reporter activity (SRE activity) [2]: found to have signal activation ability
B4: cys-Jun-PA8-aMD4dY: aMD4dY-leucine zipper fusion, SEQ ID NO: 50 (protein)
chain: MGGCGGRIARLEEKVKTLKAQNSELASTANMLREQVAQLKQKVMNAAPAAPAPACRQFNRRTHEVWNLDC
modifications: disulfide 55-70

relative reporter activity (SRE activity) [2]: showed activity comparable to HGF
B5: aMD4dY-PA8-cys-Jun: aMD4dY-leucine zipper fusion polypeptide, SEQ ID NO: 45, cell-free expressed, forms disulfide dimer (protein)
chain: MAETCRQFNRRTHEVWNLDCGAAPAAPAPAAGCGGRIARLEEKVKTLKAQNSELASTANMLREQVAQLKQKVMN
modifications: disulfide dimer; aMD4dY-PA8-cys-Jun; DISULFID 5..20 Disulfide bridge between Cys-5 and Cys-20

relative reporter activity (SRE activity) [2]: activity was also exhibited
B6: aMD4dY-PA8-cys-JunΔhep: aMD4dY fusion with c-Jun zipper having heparin binding ability removed, SEQ ID NO: 47 (protein)
chain: B5 chain with R36Q, R39Q, K45Q, K48Q
modifications: aMD4dY-PA8-cys-Junhep; DISULFID 5..20 Disulfide bridge between Cys-5 and Cys-20

ability to activate EpoR (relative receptor activity, chemiluminescence) [3]: activated EpoR
B7: EMP-PA8-cys-Jun: EMP-leucine zipper fusion, SEQ ID NO: 67 (protein)
chain: MGGLYACHMGPMTWVCQPLRGAAPAAPAPAAGCGGRIARLEEKVKTLKAQNSELASTANMLREQVAQLKQKVMN
modifications: EMP-PA8-cys-Jun; DISULFID 7..16 Disulfide bridge between Cys-7 and Cys-16

binding result [4]: binds
B8: aMD4dY-Jun-cys-N11-SecM-GS3 (designed binder)
chain: MAETCRQFNRRTHEVWNLDCGAAPAAPAPAAGGRIARLEEKVKTLKAQNSELASTANMLREQVAQLKQKVMNGCGGKDHLIHNHHKHEHAHAEHLFSTPVWISQAQGIRAGGSGSGS
modifications: cyclic peptide part closed by a disulfide bond between its two Cys
notes: In the reporter assays it was a free cell-free translation product

B9: TPO-Jun-cys-N11-SecM-GS3: thrombopoietin receptor binding cyclic peptide-leucine zipper fusion, SEQ ID NO: 72 (protein)
chain: MAETCADGPTLREWISFCGAAPAAPAPAAGGRIARLEEKVKTLKAQNSELASTANMLREQVAQLKQKVMNGCGGKDHLIHNHHKHEHAHAEHLFSTPVWISQAQGIRAGGSGSGS
modifications: cyclic peptide disulfide; TPO-Jun-cys-N11-SecM-GS3; DISULFID 5..18 Disulfide bridge between Cys-5 and Cys-18
relative SRE reporter activity (relative receptor activity) [5]: only aMD4dY-Jun-cys-N11-SecM-GS3 showed activity

binding result [6]: binds
B10: EMP-Jun-cys-N11-SecM-GS3 (designed binder)
chain: MAETGGLYACHMGPMTWVCQPLRGAAPAAPAPAAGGRIARLEEKVKTLKAQNSELASTANMLREQVAQLKQKVMNGCGGKDHLIHNHHKHEHAHAEHLFSTPVWISQAQGIRAGGSGSGS
modifications: cyclic peptide part closed by a disulfide bond between its two Cys
notes: In the PathHunter assay it was a free cell-free translation product

B11: EMP′-Jun-cys-N11-SecM-GS3: erythropoietin receptor binding cyclic peptide (EMP′)-leucine zipper fusion, SEQ ID NO: 73 (protein)
chain: MAETCHMGPMTWVCGAAPAAPAPAAGGRIARLEEKVKTLKAQNSELASTANMLREQVAQLKQKVMNGCGGKDHLIHNHHKHEHAHAEHLFSTPVWISQAQGIRAGGSGSGS
modifications: cyclic peptide disulfide; EMP'-Jun-cys-N11-SecM-GS3; DISULFID 5..14 Disulfide bridge between Cys-5 and Cys-14
relative SRE reporter activity (relative receptor activity) [5]: only aMD4dY-Jun-cys-N11-SecM-GS3 showed activity
